Substitutions are numbered along the chain they refer to. Names may count otherwise.
B1: IL6R-BP116/IL6R-L (antibody, human IgG1, name in EU numbering)
heavy: QVQLQESGPGLVKPSETLSLTCAVSGHSISHDHAWSWVRQPPGEGLEWIGFISYSGITNYNPSLQGRVTISRDNSKNTLYLQMNSLRAEDTAVYYCARSLARTTAMDYWGEGTLVTVSSASTKGPSVFPLAPSSKSTSGGTAALGCLVKDYFPEPVTVSWNSGALTSGVHTFPAVLQSSGLYSLSSVVTVPSSSLGTQTYICNVNHKPSNTKVDKKVEPKSCDKTHTCPPCPAPELLGGDSVFLFPPKPKDTLMISRTPEVTCVVVDVSHEDPEVKFNWYVDGVEVHNAKTKPREEQYNSTYRVVSVLTVLHQDWLNGKEYKCKVSNTALPAPIEKTISKAKGQPREPQVYTLPPSRDELTKNQVSLTCLVKGFYPSDIAVEWESNGQPENNYKTTPPVLDSDGSFFLYSKLTVDKSRWQQGNVFSCSVMHEALHNHYTQESLSLSP
light: DIQMTQSPSSLSASVGDRVTITCRASQDISSYLNWYQQKPGKAPKLLIYYTSRLHSGVPSRFSGSGSGTDFTFTISSLQPEDIATYYCQQGNTLPYTFGQGTKVEIK
B2: IL6R-BP136/IL6R-L (antibody, human IgG1, name in EU numbering)
heavy: B1 heavy with T328A
light: B1 light
B3: IL6R-BP142/IL6R-L (antibody, human IgG1, name in EU numbering)
heavy: B1 heavy with T328N
light: B1 light
B4: IL6R-BP118/IL6R-L (antibody, human IgG1, name in EU numbering)
heavy: B1 heavy with T328S
light: B1 light
B5: IL6R-BP119/IL6R-L (antibody, human IgG1, name in EU numbering)
heavy: B1 heavy with T328M
light: B1 light
B6: IL6R-BP121/IL6R-L (antibody, human IgG1, name in EU numbering)
heavy: B1 heavy with T328Q
light: B1 light
B7: IL6R-BP911/IL6R-L (antibody, human IgG1, name in EU numbering)
heavy: B1 heavy with T328K, A332K
light: B1 light
B8: IL6R-G1d/IL6R-L (antibody, human IgG1)
heavy: not shown
light: B1 light
notes: Anti-human IL-6 receptor IgG1 with the G1d constant region (C-terminal Gly and Lys removed); also called IgG1
B9: GpH7-B3 variant P329H / GpL16-k0 (antibody, human IgG1)
heavy: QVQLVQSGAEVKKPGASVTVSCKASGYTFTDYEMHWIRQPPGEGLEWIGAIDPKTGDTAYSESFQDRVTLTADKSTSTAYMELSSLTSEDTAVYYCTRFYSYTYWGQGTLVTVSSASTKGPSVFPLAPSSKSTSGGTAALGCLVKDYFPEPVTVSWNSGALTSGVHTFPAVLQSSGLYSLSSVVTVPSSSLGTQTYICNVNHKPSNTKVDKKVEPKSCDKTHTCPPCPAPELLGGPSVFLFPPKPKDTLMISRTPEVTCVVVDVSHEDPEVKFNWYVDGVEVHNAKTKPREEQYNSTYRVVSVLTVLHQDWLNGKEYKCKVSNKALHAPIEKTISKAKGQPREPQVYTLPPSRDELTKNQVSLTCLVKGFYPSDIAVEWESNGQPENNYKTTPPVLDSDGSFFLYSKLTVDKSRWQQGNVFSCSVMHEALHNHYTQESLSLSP
light: DIVMTQSPLSLPVTPGEPASISCQASESLVHSNRNTYLHWYLQKPGQSPQLLIYKVSNRFSGVPDRFSGSGSGTDFTLKISRVEAEDVGVYYCSQNTHVPPTFGQGTKVEIE
notes: Anti-glypican-3 human IgG1 with B3 constant region (G1d with K439E); position by EU numbering
B10: GpH7-B3 variant P329N / GpL16-k0 (antibody, human IgG1)
heavy: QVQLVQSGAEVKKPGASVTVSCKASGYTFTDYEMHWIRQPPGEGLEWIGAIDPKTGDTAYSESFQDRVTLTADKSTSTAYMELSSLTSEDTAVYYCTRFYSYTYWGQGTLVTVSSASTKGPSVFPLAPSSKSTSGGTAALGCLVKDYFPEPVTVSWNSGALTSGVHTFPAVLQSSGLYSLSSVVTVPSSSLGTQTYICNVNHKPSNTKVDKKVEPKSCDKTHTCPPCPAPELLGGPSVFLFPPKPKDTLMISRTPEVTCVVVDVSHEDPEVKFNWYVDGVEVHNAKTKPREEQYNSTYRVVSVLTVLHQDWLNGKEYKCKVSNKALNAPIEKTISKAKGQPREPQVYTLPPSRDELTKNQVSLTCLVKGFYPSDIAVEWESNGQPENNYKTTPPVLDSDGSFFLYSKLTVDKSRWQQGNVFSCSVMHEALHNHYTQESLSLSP
light: B9 light
notes: Anti-glypican-3 human IgG1 with B3 constant region; position by EU numbering
B11: GpH7-B3 variant A330S / GpL16-k0 (antibody, human IgG1)
heavy: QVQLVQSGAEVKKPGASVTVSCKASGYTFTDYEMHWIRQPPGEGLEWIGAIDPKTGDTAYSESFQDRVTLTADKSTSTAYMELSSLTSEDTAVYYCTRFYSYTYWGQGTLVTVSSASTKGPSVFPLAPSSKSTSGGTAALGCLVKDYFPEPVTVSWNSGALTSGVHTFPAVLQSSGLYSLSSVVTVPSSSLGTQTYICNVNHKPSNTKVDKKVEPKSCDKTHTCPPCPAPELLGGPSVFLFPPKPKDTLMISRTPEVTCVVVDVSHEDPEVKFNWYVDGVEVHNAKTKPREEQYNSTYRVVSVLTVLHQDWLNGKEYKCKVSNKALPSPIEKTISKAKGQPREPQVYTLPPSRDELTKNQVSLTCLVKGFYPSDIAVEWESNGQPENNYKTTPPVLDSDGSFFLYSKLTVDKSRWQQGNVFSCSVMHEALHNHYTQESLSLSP
light: B9 light
notes: as for B10
B12: GpH7-B3 variant P331G / GpL16-k0 (antibody, human IgG1)
heavy: not shown
light: B9 light
notes: as for B10
B13: GpH7-B3 variant P329W / GpL16-k0 (antibody, human IgG1)
heavy: not shown
light: B9 light
notes: as for B10
B14: GpH7-B3 variant I332K / GpL16-k0 (antibody, human IgG1)
heavy: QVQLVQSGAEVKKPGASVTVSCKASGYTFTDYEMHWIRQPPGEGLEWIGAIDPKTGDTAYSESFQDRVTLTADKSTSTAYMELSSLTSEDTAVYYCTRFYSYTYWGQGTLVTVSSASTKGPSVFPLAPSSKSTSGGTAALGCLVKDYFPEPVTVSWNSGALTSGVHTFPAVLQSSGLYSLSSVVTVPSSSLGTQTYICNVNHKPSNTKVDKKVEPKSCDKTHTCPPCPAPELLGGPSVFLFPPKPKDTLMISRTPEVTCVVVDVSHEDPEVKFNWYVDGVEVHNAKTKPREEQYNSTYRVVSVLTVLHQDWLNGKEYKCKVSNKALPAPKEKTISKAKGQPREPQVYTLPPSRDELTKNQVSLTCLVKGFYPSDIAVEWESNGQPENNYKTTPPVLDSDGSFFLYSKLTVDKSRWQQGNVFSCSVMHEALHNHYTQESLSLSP
light: B9 light
notes: as for B10
B15: GpH7-B3 variant P329D / GpL16-k0 (antibody, human IgG1)
heavy: not shown
light: B9 light
notes: as for B10
B16: GpH7-B3 variant A330P / GpL16-k0 (antibody, human IgG1)
heavy: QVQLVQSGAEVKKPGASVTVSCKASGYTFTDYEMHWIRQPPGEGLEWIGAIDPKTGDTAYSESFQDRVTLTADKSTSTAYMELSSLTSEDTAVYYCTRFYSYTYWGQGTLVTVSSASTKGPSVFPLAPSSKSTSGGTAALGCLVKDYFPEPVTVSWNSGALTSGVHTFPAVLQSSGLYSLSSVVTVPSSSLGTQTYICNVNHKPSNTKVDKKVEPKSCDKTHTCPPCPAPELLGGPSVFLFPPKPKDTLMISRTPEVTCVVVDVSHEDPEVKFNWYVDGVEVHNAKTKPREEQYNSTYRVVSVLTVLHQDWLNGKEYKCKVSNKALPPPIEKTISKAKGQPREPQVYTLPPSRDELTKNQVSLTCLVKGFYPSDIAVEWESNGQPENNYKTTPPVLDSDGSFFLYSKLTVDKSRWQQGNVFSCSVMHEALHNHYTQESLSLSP
light: B9 light
notes: as for B10
B17: GpH7-B3 variant P329G / GpL16-k0 (antibody, human IgG1)
heavy: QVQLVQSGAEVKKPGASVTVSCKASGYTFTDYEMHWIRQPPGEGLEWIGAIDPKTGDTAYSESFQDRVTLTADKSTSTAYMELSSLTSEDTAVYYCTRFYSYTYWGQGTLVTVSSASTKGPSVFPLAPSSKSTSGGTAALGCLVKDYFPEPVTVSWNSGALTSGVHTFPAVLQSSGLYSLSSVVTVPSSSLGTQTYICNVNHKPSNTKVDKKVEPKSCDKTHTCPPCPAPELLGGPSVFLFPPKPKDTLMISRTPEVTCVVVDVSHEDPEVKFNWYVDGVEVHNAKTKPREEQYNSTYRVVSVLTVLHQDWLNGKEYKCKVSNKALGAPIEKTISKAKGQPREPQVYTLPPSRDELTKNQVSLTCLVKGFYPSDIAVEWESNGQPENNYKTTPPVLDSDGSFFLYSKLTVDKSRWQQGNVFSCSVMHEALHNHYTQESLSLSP
light: B9 light
notes: as for B10
B18: GpH7-B3 variant P329S / GpL16-k0 (antibody, human IgG1)
heavy: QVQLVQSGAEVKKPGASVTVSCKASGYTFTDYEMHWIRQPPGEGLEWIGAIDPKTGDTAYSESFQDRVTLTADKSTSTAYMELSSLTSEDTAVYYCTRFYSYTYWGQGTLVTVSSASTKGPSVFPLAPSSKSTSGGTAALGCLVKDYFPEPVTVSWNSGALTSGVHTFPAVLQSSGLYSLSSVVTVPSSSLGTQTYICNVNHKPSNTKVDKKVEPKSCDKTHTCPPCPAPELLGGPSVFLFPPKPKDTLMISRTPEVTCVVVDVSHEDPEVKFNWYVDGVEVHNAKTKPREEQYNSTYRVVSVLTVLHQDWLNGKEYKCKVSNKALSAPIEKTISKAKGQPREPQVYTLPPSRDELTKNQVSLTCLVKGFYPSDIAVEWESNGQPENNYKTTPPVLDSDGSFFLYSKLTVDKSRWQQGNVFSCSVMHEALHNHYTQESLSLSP
light: B9 light
notes: as for B10
B19: GpH7-B3 variant P329E / GpL16-k0 (antibody, human IgG1)
heavy: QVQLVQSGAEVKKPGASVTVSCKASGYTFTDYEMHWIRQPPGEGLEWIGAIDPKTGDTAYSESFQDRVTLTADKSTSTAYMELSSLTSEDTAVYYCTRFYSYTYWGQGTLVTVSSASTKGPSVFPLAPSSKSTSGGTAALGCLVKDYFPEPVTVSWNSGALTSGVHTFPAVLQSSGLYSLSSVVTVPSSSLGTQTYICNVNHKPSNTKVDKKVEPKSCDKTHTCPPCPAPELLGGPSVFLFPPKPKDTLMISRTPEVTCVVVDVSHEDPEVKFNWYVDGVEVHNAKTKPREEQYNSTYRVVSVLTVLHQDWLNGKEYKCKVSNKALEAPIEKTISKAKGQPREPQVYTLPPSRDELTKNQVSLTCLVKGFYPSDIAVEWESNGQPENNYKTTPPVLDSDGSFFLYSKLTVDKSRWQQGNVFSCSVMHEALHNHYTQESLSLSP
light: B9 light
notes: as for B10
B20: GpH7-B3 variant I332R / GpL16-k0 (antibody, human IgG1)
heavy: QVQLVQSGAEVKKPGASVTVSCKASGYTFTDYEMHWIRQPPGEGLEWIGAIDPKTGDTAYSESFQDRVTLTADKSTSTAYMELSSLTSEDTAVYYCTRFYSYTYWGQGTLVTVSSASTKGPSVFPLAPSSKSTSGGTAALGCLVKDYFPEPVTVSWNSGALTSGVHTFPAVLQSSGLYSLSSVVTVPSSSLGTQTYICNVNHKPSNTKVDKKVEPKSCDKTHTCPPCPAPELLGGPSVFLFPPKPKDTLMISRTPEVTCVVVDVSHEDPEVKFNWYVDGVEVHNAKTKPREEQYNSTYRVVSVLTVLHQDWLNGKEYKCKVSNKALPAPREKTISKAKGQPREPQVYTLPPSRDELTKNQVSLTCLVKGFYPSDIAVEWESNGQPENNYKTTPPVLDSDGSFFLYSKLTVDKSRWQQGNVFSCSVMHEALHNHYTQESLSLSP
light: B9 light
notes: as for B10
B21: GpH7-B3 variant I332P / GpL16-k0 (antibody, human IgG1)
heavy: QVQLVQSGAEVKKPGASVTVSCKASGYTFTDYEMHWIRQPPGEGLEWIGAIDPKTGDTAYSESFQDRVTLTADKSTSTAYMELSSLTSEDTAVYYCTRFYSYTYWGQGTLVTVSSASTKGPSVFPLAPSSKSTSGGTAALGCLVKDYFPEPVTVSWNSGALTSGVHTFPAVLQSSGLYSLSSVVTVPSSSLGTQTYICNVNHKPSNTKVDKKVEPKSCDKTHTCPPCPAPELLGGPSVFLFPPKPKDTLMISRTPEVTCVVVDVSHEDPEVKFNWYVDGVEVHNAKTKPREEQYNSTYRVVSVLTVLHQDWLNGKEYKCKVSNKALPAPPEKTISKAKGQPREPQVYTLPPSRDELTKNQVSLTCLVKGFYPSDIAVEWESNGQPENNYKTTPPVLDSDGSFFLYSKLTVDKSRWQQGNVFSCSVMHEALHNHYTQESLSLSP
light: B9 light
notes: as for B10

target: T1, human FcγRIa (human, UniProt P12314 16-292, limits assumed); assay: SPR (Biacore), FcγR over captured antibody; binding amount relative to IL6R-BF648/IL6R-L x100
T1 construct: also called FcyRIa; CD64
T1 sequence (P12314 16-292 limits assumed): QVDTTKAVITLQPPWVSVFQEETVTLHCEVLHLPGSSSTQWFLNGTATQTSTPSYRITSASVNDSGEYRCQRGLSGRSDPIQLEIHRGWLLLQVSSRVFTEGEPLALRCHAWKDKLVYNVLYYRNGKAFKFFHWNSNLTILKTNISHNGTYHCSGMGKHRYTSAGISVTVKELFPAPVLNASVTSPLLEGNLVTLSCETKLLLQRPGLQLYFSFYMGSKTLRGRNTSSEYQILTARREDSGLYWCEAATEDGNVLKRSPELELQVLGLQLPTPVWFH

Row | Binder | relative binding
1 | B1 | 110 % of IL6R-BF648/IL6R-L
2 | B2 | 117 % of IL6R-BF648/IL6R-L
3 | B3 | 98 % of IL6R-BF648/IL6R-L
4 | B4 | 101 % of IL6R-BF648/IL6R-L
5 | B5 | 117 % of IL6R-BF648/IL6R-L
6 | B6 | 118 % of IL6R-BF648/IL6R-L
7 | B7 | 52 % of IL6R-BF648/IL6R-L
8 | B8 | 140 % of IL6R-BF648/IL6R-L

target: T2, human FcγRIIa type H (human, UniProt P12318 36-217); assay: as above
T2 construct: also called FcyRIIaH; FcγRIIa(H)
T2 sequence: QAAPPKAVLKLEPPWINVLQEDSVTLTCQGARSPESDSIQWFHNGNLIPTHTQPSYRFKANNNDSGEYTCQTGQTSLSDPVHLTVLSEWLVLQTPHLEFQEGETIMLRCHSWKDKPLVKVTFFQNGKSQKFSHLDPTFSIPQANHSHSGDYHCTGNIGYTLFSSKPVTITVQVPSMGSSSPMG

Row | Binder | relative binding
9 | B1 | 110 % of IL6R-BF648/IL6R-L
10 | B2 | 103 % of IL6R-BF648/IL6R-L
11 | B3 | 97 % of IL6R-BF648/IL6R-L
12 | B4 | 128 % of IL6R-BF648/IL6R-L
13 | B5 | 133 % of IL6R-BF648/IL6R-L
14 | B6 | 135 % of IL6R-BF648/IL6R-L
15 | B7 | 108 % of IL6R-BF648/IL6R-L
16 | B8 | 1670 % of IL6R-BF648/IL6R-L

target: T3, human FcγRIIb (human, UniProt P31994 43-217, limits assumed); assay: as above
T3 construct: also called FcyRIfb; FcγIIB
T3 sequence: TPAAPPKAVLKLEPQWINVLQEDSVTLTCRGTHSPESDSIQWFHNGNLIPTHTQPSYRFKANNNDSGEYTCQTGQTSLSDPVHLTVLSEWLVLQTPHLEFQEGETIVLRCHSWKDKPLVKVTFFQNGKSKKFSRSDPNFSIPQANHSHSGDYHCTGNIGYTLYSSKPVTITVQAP

Row | Binder | relative binding
17 | B1 | 108 % of IL6R-BF648/IL6R-L
18 | B2 | 119 % of IL6R-BF648/IL6R-L
19 | B3 | 106 % of IL6R-BF648/IL6R-L
20 | B4 | 104 % of IL6R-BF648/IL6R-L
21 | B5 | 110 % of IL6R-BF648/IL6R-L
22 | B6 | 113 % of IL6R-BF648/IL6R-L
23 | B7 | 119 % of IL6R-BF648/IL6R-L
24 | B8 | 62 % of IL6R-BF648/IL6R-L

target: T4, human FcγRIIIa type V (human, UniProt P08637 17-208, limits assumed); assay: as above
T4 construct: also called FcyRIIIa; FcγRIIIaV

Row | Binder | relative binding
25 | B1 | 114 % of IL6R-BF648/IL6R-L
26 | B2 | 102 % of IL6R-BF648/IL6R-L
27 | B3 | 102 % of IL6R-BF648/IL6R-L
28 | B4 | 144 % of IL6R-BF648/IL6R-L
29 | B5 | 145 % of IL6R-BF648/IL6R-L
30 | B6 | 157 % of IL6R-BF648/IL6R-L
31 | B7 | 120 % of IL6R-BF648/IL6R-L
32 | B8 | 3350 % of IL6R-BF648/IL6R-L

target: T5, human FcγRIa (human, UniProt P12314 16-292, limits assumed); assay: SPR (Biacore), antibody captured, FcγR analyte, 25 C; normalised to captured antibody, GpH7-B3/GpL16-k0 = 100;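 further: antibodies held on sensor chips through immobilized antigen peptide, Protein A, Protein A/G or Protein L, with HBS-EP+ running buffer and FcγR in solution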
T5 construct: Soluble analyte in SPR; also called hFcgRIa; FcgRIa
T5 sequence (P12314 16-292 limits assumed): as the sequence (P12314 16-292 limits assumed) above
Procedure: (§1) Interaction between each modified antibody and Fcγ receptor prepared in the manner described above was analyzed using the BIACORE™ T100 surface plasmon resonance system (GE Healthcare), BIACORE™ T200 surface plasmon resonance system (GE Healthcare), BIACORE™ A100 surface plasmon resonance system or BIACORE™ 4000 surface plasmon resonance system. HBS-EP+(GE Healthcare) was used for the running buffer, and measurements were carried out at 25° C. The chips used were chips in which antigen peptides, Protein A (Thermo Scientific), Protein A/G (Thermo Scientific) or Protein L (ACTIGEN® protein (Alltech or BioVision) were immobilized on the Series S Sensor Chip CM5 (GE Healthcare) or Series S Sensor Chip CM4 (GE Healthcare) by amine coupling, or chips in which preliminarily biotinylated antigen peptides were allowed to interact and then immobilized on the Series S Sensor Chip SA (certified) (GE Healthcare). The target antibodies were captured on these sensor chips, Fcγ receptor diluted with the running buffer was allowed to interact, followed by measurement of the amount of bound antibody. The amounts bound were compared between antibodies. However, since the amount of Fcγ receptor bound depends on the amount of captured antibody, the values used for comparison were first corrected by dividing the amount of Fcγ receptor bound by the captured amount of each antibody. Through reaction with 10 mM glycine-HCl at pH 1.5, the sensor chips were regenerated by washing off antibody captured on the sensor chips and used repeatedly.
(§2) Binding strength was evaluated according to the following method based on the results of analyzing the interaction with each FcγR. […] That value was then further multiplied by 100, and the resulting value was used as an indicator of relative binding activity to each FcγR.

Row | Binder | relative binding activity (parent antibody = 100)
33 | B9 | 50 % of control
34 | B10 | 45 % of control
35 | B11 | 58 % of control
36 | B12 | 88 % of control
37 | B13 | 94 % of control
38 | B14 | 77 % of control
39 | B15 | 23 % of control
40 | B16 | 87 % of control
41 | B17 | 92 % of control
42 | B18 | 60 % of control
43 | B19 | 33 % of control
44 | B20 | 95 % of control
45 | B21 | 100 % of control

Target: T6, human FcγRIIa(R) (allotype R131) (human, UniProt P12318 36-217)
T6 construct: Soluble analyte in SPR; also called hFcgRIIa(R); FcgRIIaR
T6 chain: T2 sequence with H133R
Assay: as above
Procedure: as §1, §2

Row | Binder | relative binding activity (parent antibody = 100)
46 | B9 | -1 % of control
47 | B10 | 4 % of control
48 | B11 | 0 % of control
49 | B12 | 13 % of control
50 | B13 | 1 % of control
51 | B14 | 12 % of control
52 | B15 | 1 % of control
53 | B16 | 42 % of control
54 | B18 | 0 % of control
55 | B19 | -1 % of control
56 | B20 | 28 % of control
57 | B21 | 34 % of control

target: T7, human FcγRIIa(H) (allotype H131) (human, UniProt P12318 36-217); assay: as above
T7 construct: Soluble analyte in SPR; also called hFcgRIIa(H); FcgRIIaH
T7 sequence: T2 sequence
Procedure: as §1, §2

Row | Binder | relative binding activity (parent antibody = 100)
58 | B9 | 0 % of control
59 | B10 | 5 % of control
60 | B11 | 0 % of control
61 | B13 | 0 % of control
62 | B14 | 59 % of control
63 | B15 | -1 % of control
64 | B16 | 25 % of control
65 | B17 | 1 % of control
66 | B18 | 1 % of control
67 | B19 | 0 % of control
68 | B20 | 70 % of control
69 | B21 | 26 % of control

target: T8, human FcγRIIb (human, UniProt P31994 43-217, limits assumed); assay: as above
T8 construct: Soluble analyte in SPR; also called hFcgRIIb; FcgRIIb
T8 sequence: T3 sequence
Procedure: as §1, §2

Row | Binder | relative binding activity (parent antibody = 100)
70 | B9 | -3 % of control
71 | B10 | 0 % of control
72 | B11 | -3 % of control
73 | B13 | 0 % of control
74 | B14 | 27 % of control
75 | B15 | -2 % of control
76 | B16 | 39 % of control
77 | B17 | 0 % of control
78 | B18 | 1 % of control
79 | B19 | -2 % of control
80 | B20 | 23 % of control
81 | B21 | 41 % of control

target: T9, human FcγRIIIa(F) (allotype F158) (human, UniProt P08637 17-208, limits assumed); assay: as above
T9 construct: also called hFcgRIIIa(F); FcgRIIIaF
T9 sequence (P08637 other isoform, or with tags, fused parts or gaps limits assumed): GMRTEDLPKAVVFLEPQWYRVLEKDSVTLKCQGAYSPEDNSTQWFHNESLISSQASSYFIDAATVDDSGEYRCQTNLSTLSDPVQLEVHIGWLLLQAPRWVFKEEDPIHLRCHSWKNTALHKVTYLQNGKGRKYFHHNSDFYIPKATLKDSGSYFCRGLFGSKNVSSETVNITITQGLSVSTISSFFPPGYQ
Procedure: as §1, §2

Row | Binder | relative binding activity (parent antibody = 100)
82 | B9 | -1 % of control
83 | B10 | 3 % of control
84 | B11 | 0 % of control
85 | B13 | 0 % of control
86 | B15 | -1 % of control
87 | B16 | 56 % of control
88 | B17 | 4 % of control
89 | B18 | 1 % of control
90 | B19 | -1 % of control
91 | B20 | 61 % of control
92 | B21 | 14 % of control

From patent publication US20230257470A1 (published 2023)
